According to US20230263900A1, “DENDRIMER-DRUG CONJUGATE” (priority 2020, published 2023):

Assay: Pharmacokinetic studies of RHa-5 and RHa-15, single IV or SC administration, compared with RDV
Assay type: in vivo, animals (mammals)
Settings: for F AUC(0-inf), plasma GS-441524 / F AUC(0-inf), plasma Remdesivir / F AUC(0-last), plasma GS-441524 / F AUC(0-last), plasma Remdesivir: relative to RDV IV
Protocol: Studies were undertaken to investigate the pharmacokinetic (PK) profile of two Remdesivir dendrimer conjugates following single intravenous (IV) or subcutaneous (SC) administration, and to compare them with that of Remdesivir (RDV).
The study consisted of two phases (PK Phase 1 and PK Phase 2) in a total of 6 animals (age 36-48 months) each part separated by a washout period: • PK Phase 1: Four animals (mammals) were studied. One male and one female were administered RHa-5 (BHALys [Lys]2[Lys]2[Lys]8[Lys]16[Lys]32[(α-NH-6N-TDA-Remdesivir)32(ε-NH-COPEG2000)32] 20% Remdesivir loading w/w) (test item) intravenously; and one male and one female were administered RHa-5 subcutaneously. Blood samples were taken over a period of 7 days. A minimum washout period of 14 days took place between the last blood sampling point of the PK Phase 1 and the start of PK Phase 2. • PK Phase 2: Six animals (mammals) were studied. One male and one female were administered RHa-15 (BHALys[Lys]2[Lys]4[Lys]8[Lys]16[Lys]32[(α-NH-3′ O-TDA-Remdesivir)32(ε-NH-COPEG2000)32] 18.63% Remdesivir loading w/w) (test item) intravenously; one male and one female were administered RHa-15 subcutaneously; and one male and one female were administered RDV (reference item). Blood samples were taken over a period of 7 days.
Formulation procedure: Test items RHa-5 and RHa-15 were reconstituted in Required volume of Water for injection (WFI), until a complete solution was obtained. The required volume of WFI was slowly added to RDV formulation (a lyophilate of 3.2% w/w RDV, 96.8% and sodium sulfobutylether-β-cyclodextrin adjusted to pH 3.5 with HCl) and shaken vigorously for 30 seconds. The solution was left for 20 minutes to ensure complete dissolution.
Administration: The clinical Remdesivir loading dose in humans is 200 mg. […] Allometric conversion of the dose from humans to small mammals results in an equivalent test dose of 6.17 mg/kg Remdesivir. Test item was administered as follows:
PK Phase 1: Two animal groups (A and B) of one male and one female each were administered test item RHa-5 at a Remdesivir equivalent dose of 6.17 mg/kg. Group A were administered the test item as a slow (30 seconds) intravenous bolus; and Group B were administered the test item over 30 seconds using the subcutaneous (SC) route into the back of the animal.
PK Phase 2: Three animal groups (C, D and E) of one male and one female each were included in this study phase. Groups C and D were administered test item RHa-15 at a Remdesivir equivalent dose of 6.17 mg/kg using the IV and SC routes, respectively. Group E were administered 6.17 mg/kg of RDV intravenously. IV administrations were done as a slow (30 seconds) bolus. SC administrations were done over 30 seconds.
Sampling schedule: Blood samples for PK analysis were collected as follows: • Day 1: pre-dose and at 15 min, 30 min, 1 h, 2 h, 4 h, 6 h, and 12 h after administration. • Days 2 to 8: 24, 48, 72, and 168 h after administration.
A blood volume of 2 mL was collected at each time point from the jugular vein with a 20-21G needle into a lithium heparin tube, and transferred into a tube containing 200 μL 0.15 M citric acid. Immediately following blood collection, the blood samples were mixed gently and kept on crushed ice until centrifugation at 1500 G for 10 min at 4° C. within 30 minutes of collection. Each plasma sample was stored frozen (˜80±10° C.).
The quantification range was 0.6 to 14400 ng/mL for Remdesivir and 0.6 to 14400 ng/mL for G441524.
Non-compartmental pharmacokinetic analysis was adopted to obtain the pharmacokinetic parameters from the blood concentration profiles.
The maximum concentration, Cmax, and time of maximum concentration, Tmax, were determined as the maximum measured concentration and its associated time. The area under the plasma concentration curve from 0 hours to the time of the last measurable concentration, AUC0-last, was calculated using linear trapezoidal estimation. […]

[1] = IV, 6.17 mg/kg Remdesivir equivalent, female (4F)
[2] = IV, 6.17 mg/kg Remdesivir equivalent, female (4F; RDV 6F)
[3] = IV, 6.17 mg/kg Remdesivir equivalent, male (1M)
[4] = IV, 6.17 mg/kg Remdesivir equivalent, male (1M; RDV 3M)
[5] = IV, 6.17 mg/kg Remdesivir equivalent, mean of male and female
[6] = IV, 6.17 mg/kg Remdesivir equivalent, mean
[7] = SC, 6.17 mg/kg Remdesivir equivalent, female (5F)
[8] = SC, 6.17 mg/kg Remdesivir equivalent, male (2M)
[9] = SC, 6.17 mg/kg Remdesivir equivalent, mean
[10] = both sexes, in vivo, iv, 6.17 mg/kg
[11] = female, in vivo, iv, 6.17 mg/kg

BHALys[Lys]2[Lys]4[Lys]8[Lys]16[Lys]32[(α-NH-3′O-TDA-Remdesivir)32(ε-NH-COPEG2000)32] [RHa-15]
C0, plasma GS-441524 [1]: 1 ng/mL | C0, plasma Remdesivir [1]: 691 ng/mL | F AUC(0-inf), plasma GS-441524 [1]: 0.8 x-fold | F AUC(0-inf), plasma Remdesivir [1]: 14.8 x-fold | F AUC(0-last), plasma GS-441524 [1]: 0.7 x-fold | F AUC(0-last), plasma Remdesivir [1]: 16.3 x-fold | Clast, plasma GS-441524 [2]: 10.5 ng/mL | Clast, plasma Remdesivir [2]: 1.8 ng/mL | t1/2last, plasma GS-441524 [2]: 19.0 h | t1/2last, plasma Remdesivir [2]: 10.1 h | tlast, plasma GS-441524 [2]: 72 h | tlast, plasma Remdesivir [2]: 72 h | C0, plasma GS-441524 [3]: 1 ng/mL | C0, plasma Remdesivir [3]: 664 ng/mL | F AUC(0-inf), plasma GS-441524 [3]: 0.8 x-fold | F AUC(0-inf), plasma Remdesivir [3]: 12.1 x-fold | F AUC(0-last), plasma GS-441524 [3]: 0.7 x-fold | F AUC(0-last), plasma Remdesivir [3]: 12.4 x-fold | Clast, plasma GS-441524 [4]: 10.9 ng/mL | Clast, plasma Remdesivir [4]: 1.8 ng/mL | t1/2last, plasma GS-441524 [4]: 21.5 h | t1/2last, plasma Remdesivir [4]: 10.0 h | tlast, plasma GS-441524 [4]: 72 h | tlast, plasma Remdesivir [4]: 72 h | C0, plasma GS-441524 [5]: 1 ng/mL | C0, plasma Remdesivir [5]: 677 ng/mL | Clast, plasma GS-441524 [5]: 11 ng/mL | Clast, plasma Remdesivir [5]: 2 ng/mL | t1/2last, plasma GS-441524 [5]: 20.3 h | t1/2last, plasma Remdesivir [5]: 10.0 h | tlast, plasma GS-441524 [5]: 72 h | tlast, plasma Remdesivir [5]: 2 h | F AUC(0-inf), plasma GS-441524 [6]: 0.8 x-fold | F AUC(0-inf), plasma Remdesivir [6]: 13.5 x-fold | F AUC(0-last), plasma GS-441524 [6]: 1 x-fold | F AUC(0-last), plasma Remdesivir [6]: 14 x-fold | Clast, plasma GS-441524 [7]: 1 ng/mL | Clast, plasma Remdesivir [7]: 2 ng/mL | t1/2last, plasma GS-441524 [7]: 24.5 h | t1/2last, plasma Remdesivir [7]: 31.5 h | tlast, plasma GS-441524 [7]: 168 h | tlast, plasma Remdesivir [7]: 168 h | F AUC(0-inf), plasma GS-441524 [7]: 0.8 x-fold | F AUC(0-inf), plasma Remdesivir [7]: 14.8 x-fold | F AUC(0-last), plasma GS-441524 [7]: 0.8 x-fold | F AUC(0-last), plasma Remdesivir [7]: 16.3 x-fold | Clast, plasma GS-441524 [8]: 1 ng/mL | Clast, plasma Remdesivir [8]: 2 ng/mL | t1/2last, plasma GS-441524 [8]: 26.2 h | t1/2last, plasma Remdesivir [8]: 41.3 h | tlast, plasma GS-441524 [8]: 168 h | tlast, plasma Remdesivir [8]: 168 h | F AUC(0-inf), plasma GS-441524 [8]: 0.9 x-fold | F AUC(0-inf), plasma Remdesivir [8]: 12.1 x-fold | F AUC(0-last), plasma GS-441524 [8]: 0.9 x-fold | F AUC(0-last), plasma Remdesivir [8]: 12.4 x-fold | Clast, plasma GS-441524 [9]: 1 ng/mL | Clast, plasma Remdesivir [9]: 2 ng/mL | t1/2last, plasma GS-441524 [9]: 25.3 h | t1/2last, plasma Remdesivir [9]: 36.4 h | tlast, plasma GS-441524 [9]: 168 h | tlast, plasma Remdesivir [9]: 168 h | F AUC(0-inf), plasma GS-441524 [9]: 0.8 x-fold | F AUC(0-inf), plasma Remdesivir [9]: 13.5 x-fold | F AUC(0-last), plasma GS-441524 [9]: 1 x-fold | F AUC(0-last), plasma Remdesivir [9]: 14 x-fold | Plasma Remdesivir t1/2 and AUC compared to RDV delivered IV (delivered IV or SC): substantially extended plasma Remdesivir t1/2 and increased AUC

CCC(CC)COC(=O)[C@H](C)N[P@](=O)(OC[C@H]1O[C@@](C#N)(c2ccc3c(N)ncnn23)[C@H](O)[C@@H]1O)Oc1ccccc1 [RDV, 2-Ethylbutyl (2S)-2-{[(S)-{[(2R,3S,4R,5R)-5-(4-aminopyrrolo[2,1-f][1,2,4]triazin-7-yl)-5-cyano-3,4-dihydroxytetrahydrofuran-2-yl]methoxy}(phenoxy)phosphoryl]amino}propanoate]
AUC(0-inf) [10]: 332 ng·h/mL | AUC(0-t) [10]: 312 ng·h/mL | Cmax [10]: 364 ng/mL | Tmax [10]: 0.3 h | Clast, plasma Remdesivir (both, in vivo, iv, 6.17 mg/kg): 2 ng/mL | Time with plasma levels of Remdesivir greater than 10 ng/ml (both, in vivo, iv, 6.17 mg/kg): about 1 hour | Time with plasma levels of Remdesivir greater than 100 ng/ml (both, in vivo, iv, 6.17 mg/kg): about 30 minutes | t1/2last, plasma Remdesivir (both, in vivo, iv, 6.17 mg/kg): 7.3 h | tlast, plasma Remdesivir (both, in vivo, iv, 6.17 mg/kg): 36 h | AUC(0-inf) [11]: 293 ng·h/mL | AUC(0-t) [11]: 265 ng·h/mL | Cmax [11]: 267 ng/mL | Tmax [11]: 0.25 h | Vd [11]: 3920 L/kg | concentration at 48 h [11]: 1.8 ng/mL | t1/2last, plasma Remdesivir [11]: 10.7 h | tlast, plasma Remdesivir [11]: 48 h | Clearance from blood (in vivo, iv): rapidly cleared from blood | AUC(0-inf) (male, in vivo, iv, 6.17 mg/kg): 370 ng·h/mL | AUC(0-t) (male, in vivo, iv, 6.17 mg/kg): 360 ng·h/mL | Cmax (male, in vivo, iv, 6.17 mg/kg): 462 ng/mL | Tmax (male, in vivo, iv, 6.17 mg/kg): 0.25 h | Vd (male, in vivo, iv, 6.17 mg/kg): 1130 L/kg | concentration at 24 h (male, in vivo, iv, 6.17 mg/kg): 1.8 ng/mL | t1/2last, plasma Remdesivir (male, in vivo, iv, 6.17 mg/kg): 3.9 h | tlast, plasma Remdesivir (male, in vivo, iv, 6.17 mg/kg): 24 h
